Tests used:
[1] = system: motility of the digestive tracts; assay: Example 3: motility of the digestive tracts after meal in dogs (strain gauge transducers); format: in vivo, hybrid dogs
Method: An experiment was performed as described below in order to examine the action of glicentin on a motility of the digestive tracts after meal.
Six hybrid dogs weighing 16-18 kg were sutured with strain gauge transducers (manufactured by Star Medical, F121S) at a site of the gastric antrum 4 cm from the pyloric ring, a site of the duodenum for the main incurrent pancreatic duct and a site of the jejunum 10 cm from the Treitz's ligamentum, respectively, to measure the contractile force intensity of the circular muscle. Recovery period for the suture was 2 weeks.
Three of the 6 dogs were intravenously given over 1 hour 15 ml of a physiological saline solution in which 400 pmol of glicentin had been dissolved per kg of bodyweight. The remaining three received an aqueous physiological solution containing no glicentin in the same way as above as a control for comparison. The dogs were fed on 15 g of a solid diet (SD®, manufactured by Oriental Yeast K.K.) and 15 g of Vitaone® (manufactured by Nihon Pet Food K.K. and Kyodo Shiryo K.K.) per kg of bodyweight simultaneously with the intravenous administration.
Then, the motor activity of the digestive tracts and length of the post-feed period were measured. Intensity of the contraction in the post-feed period was integrated for the two-hour measurements and evaluated in comparison with the mean level of the signal peak in phase 3 motor activity of the intestinal tracts in hunger and taken as a motor index.

male BALB/c mice = assay: Intraperitoneal administration to mice, observation of appearance; format: in vivo; conditions: 10 mg/kg intraperitoneally, 6 weeks age
intestinal mucosa = assay: Example 2: weight of intestinal mucosa in rats, glicentin compared with related peptides; format: in vivo; conditions: 1 nmol per rat s.c.
Method: A solution of glicentin dissolved in a small amount of distilled water for injection was diluted with a 2% solution of bovine albumin prepared with a physiological saline solution for injection to a concentration of 400 μg/ml (50 nmol/ml). The solution was frozen and stored until used. On use it was 1:10 diluted with the physiological saline solution and subcutaneously given to rats at a dose of 0.2 ml, i.e., 1 nmol of glicentin per rat.
They were prepared and administered in the same way as glicentin at a dose of 1 nmol.
The small intestine was divided equally into four parts and the third part from the duodenum was measured for the weight of the mucosa.

intestinal mucosae = assay: Example 1: nutritional (trophic) effect on the intestinal mucosae of rats fed an elemental nutrition; format: in vivo, male SD rats
Method: An experiment was performed in male SD rats weighing 140-160 g which had been fed on standard food under light-dark condition of a cycle of 12 hours. The food which was replaced by an elemental nutrition (Elental®, Morishita-Roussel Japan) was taken ad lib., and remained unchanged until the experiment was finished. After feeding on the component nutrition for 3 days, administration of glicentin prepared as described below was started.
Gelatin was dissolved in warm water to a weight ratio of 16%, and the solution autoclaved and cooled to room temperature. To 40 ml of the gelatin solution was added a solution of 1 mg of glicentin in 10 ml of distilled water with stirring at room temperature. The mixture was divided into test tubes, freeze dried and stored for use.
The gelatin solution was subcutaneously given at a dose of 10 μg per glicentin every 12 hours for 7 days to examine a nutritional effect of glicentin on the intestinal mucosae. A similar gelatin solution containing no glicentin was given for the same period of time as a control for comparison. Twelve hours after completion of the final administration, the rats were sacrificed and subjected to removal of the small intestine in the region from the Treitz's ligamentum to the cecum. The removed small intestine was cut at the central site to separate it into the jejunum and the ileum. The lumen of each of the intestinal tracts was gently washed with an aqueous physiological saline solution. The intestinal tracts were longitudinally incised, respectively, and tissues were removed of a portion of the jejunum in proximity to the duodenum, a portion of the ileum in proximity to the cecum and a portion around the boundary between the jejunum and the ileum and fixed in a 3.7% formalin solution as the proximal, distal and middle sites of the small intestine, respectively. Mucosae were collected by ablation with a spatula from the remainder of the intestinal tracts and weighed, respectively.
The tissues fixed in the formalin solution were embedded in paraffin to form a preparation which was stained with hematoxylin-eosin and measured for height of the villi using an optical microscope.

[2] = 400 pmol/kg i.v. over 1 hour, post-feed contraction integrated over two hours, relative to phase 3 peak in hunger
[3] = 400 pmol/kg i.v., versus control
[4] = 10 μg s.c. every 12 hours for 7 days
[5] = 10 μg s.c. every 12 hours for 7 days, hematoxylin-eosin, optical microscope

B1: glicentin (protein)
chain: RSLQDTEEKSRSFSASQADPLSDPDQMNEDKRHSQGTFTSDYSKYLDSRRAQDFVQWLMNTKRNRNNIA
notes: peptide of 69 amino acid residues, one of the enteroglucagons; human glicentin prepared by genetic engineering procedure
B1 was tested, and the “Length of post-feed period” value ([1]; 400 pmol/kg i.v. over 1 hour, given with feeding) was 13.6 ± 1.0 h, the “Motor index, duodenum” value [1, 2] was 0.675 ± 0.4 and the “Motor index, jejunum” value [1, 2] was 1.087 ± 0.2. For the same molecule, the “Motor index, stomach vestibulum” value [1, 2] was 0.878 ± 0.1, the “influence upon the length of the post-feed period (in words)” value [1, 3] was “no influence” and the “post-feed motility in the vestibulum of stomach (in words)” value [1, 3] was “inhibited”. The change in appearance (male BALB/c mice) was “no change in appearance is observed”, the “effect on the weight of intestinal mucosa (in words)” value (intestinal mucosa; versus control group) was “significantly increases” and the Intestinal mucosal weight (intestinal mucosa; third quarter of the small intestine from the duodenum) was 0.614 ± 0.025 g. The Ileal mucosal weight (intestinal mucosae; [4]) was 1.04 g, the “Ileal mucosal weight per 100 g bodyweight” value (intestinal mucosae; [4]) was 0.57 g/100 g bodyweight and the Jejunal mucosal weight (intestinal mucosae; [4]) was 1.3 g. The “Jejunal mucosal weight per 100 g bodyweight” value (intestinal mucosae; [4]) was 0.75 g/100 g bodyweight, the “Length of small intestine” value (intestinal mucosae; [4]) was 107.0 cm and the “Length of small intestine per 100 g bodyweight” value (intestinal mucosae; [4]) was 66.4 cm/100 g bodyweight. For the same molecule, the “Whole small intestinal mucosal weight” value (intestinal mucosae; [4]) was 2.38 g, the “Whole small intestinal mucosal weight per 100 g bodyweight” value (intestinal mucosae; [4]) was 1.32 g/100 g bodyweight and the “Villous height in distal intestine” value (intestinal mucosae; [5]) was 216 ± 8.4 μm. The “Villous height in middle intestine” value (intestinal mucosae; [5]) was 354 ± 7.5 μm, the “Villous height in proximal intestine” value (intestinal mucosae; [5]) was 546 ± 18.6 μm and the “effect on ileal mucosa (in words)” value (intestinal mucosae; versus control group) was “tendency to increase”. For the same molecule, the “effect on jejunal mucosal weight (in words)” value (intestinal mucosae; versus control group) was “significantly increases”, the “effect on length of the small intestine (in words)” value (intestinal mucosae; versus control group) was “tendency to increase” and the “effect on whole small intestinal mucosal weight including jejunum and ileum (in words)” value (intestinal mucosae; versus control group) was “significantly increases”.
